# According to patent WO1995025167A1:
# Assays:
# [1] = target: EGFR on EGFR-bearing tumor cells (human) (UniProt P00533); test: flow cytometry, crude bacterial supernatant on MDA MB 231 cells, positive control
# [2] = target: EGFR on EGFR-bearing tumor cells (human) (UniProt P00533); test: flow cytometry, crude bacterial supernatant on A431 cells, positive control
# [3] = target: EGFR on EGFR-bearing tumor cells (human) (UniProt P00533); test: flow cytometry, crude bacterial supernatant on HT29 cells, positive control
substance,measurement,setting,value
scFv derived from MAb 425,mean fluorescence (cytometric analysis) (arbitrary fluorescence units),[1],21.3
same,mean fluorescence (cytometric analysis) (arbitrary fluorescence units),[2],85.5
same,mean fluorescence (cytometric analysis) (arbitrary fluorescence units),[3],2.5
